The supplement of paper PMC9170038

Test system: K4 kissing-loop RNA reporter
Test: apparent KD of K4 kissing-loop reporter; higher = weaker reporter binding
Details: Eterna round: R107; input ligand: arginine 13.2 mM
Method: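 RNA-MaP round R107: designed RNA switches with theophylline, tryptophan, arginine or FMN aptamers are transcribed on-chip within common flanks. They are titrated with a labelled K4 kissing-loop RNA reporter in RNA-MaP buffer (100 mM Tris pH 7.5, 80 mM KCl, 4 mM MgCl2), without ligand or with the indicated ligand. Median apparent KD per design.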
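Further: bound reporter read as fluorescence of individual clusters on recovered sequencing chips by microscopy, with normalized cluster intensities fitted with a binding model.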

First: UGAUACCAGACGGCCGCCACUCCCGUAAGUCAAAGACUUACGAAGAGAAUCGUCCAGUGAUGUUGGAGGACCGGGUCUGGUAUCU [FiskerMod 11 - Jieux - Exclusion - Tryptophan B]
Second: UGUGUUUACCUGACUCAGUGAUGUUGAGAAGGAGCGUGGGAAACCACAGGUAGGUCGCUCAACCUAAAUUCAGGUGAGCACUAAA
The “apparent KD of K4 kissing-loop reporter” value of the first is 3-fold higher: 664 nM for the first, 219 nM for the second.

Compared with “UGAUACCAGACUGAUACCAGCCACAGAGUCAAGACUCUGAUAAAGGUAACCAGUGAUGUUGGCCCUUGGCAGCAGUCUGGUAUCU [TheoBX 16 #SwitchBubble #StaticStem]”, “GGUGUUGUUUGUGCUGUUUUCUUCGUUUCUCGAGGACCGGUACGGCCGCCACUCGAGUGAUGUUUGGGUAGCGAUCUUUGUUAGU [Bdazzled - #4- Exc. Tryptophan A]” is 1.6-fold higher in “apparent KD of K4 kissing-loop reporter” value: 164 nM for the first, 256 nM for the second.

First: CCAGAAUAAUGAAGAUGAUAAAUUACUGAAGGAGCGCAUAUAGUUGCAGGUAGGUCGCGGUGAAUAAGUAUAGUGAUGUUAUACC [SSArgA.Ad]
Second: AAGUGUGUGGCGGCCGCCACUAGAAUCCAGUGAUGUUGGAGUUAUCAUGUAAAUGAUAAUCAACAUAGGACCGGGCCAUAUAGAA [Same State - Tryptophan B (Freestyle 8)]
The “apparent KD of K4 kissing-loop reporter” value of the first is 1.8-fold lower: 209 nM for the first, 377 nM for the second.

Same assay, conditions: Eterna round: R107; input ligand: none

Going from “AUUUUGGUUGAAGGAUAUUCUCCCAUCGACGCGAUAAGAUACUUUGGAAGGUUUGCAGUGAUGUUGGAAGAAGGUCAAAGUUGUA [theeternabot_exclusion_KL_FMN_B_22]” to “ACGAUCAUGGCAGGAUAUACGAAUGCAUUAGGGCUGCCAGUGAUGUUGGUGGACCGAGGACGUAGAGUAGAAGGGCCGACUUAAA [Leonmain]”, the “apparent KD of K4 kissing-loop reporter” value falls from 611 nM to 139 nM (4.4-fold).

First: GUAUAUUAGGGAGACCUAAUAUAAAUAGAAGGAGCGUAGGAAACUACAGGUAGGUCGCUAAAUAUACAGUGAUGUUGUAUAAUGG [arg a same]
Second: AUGGGCGAGGUAACGUGGAUAUCUCGUCGCAAGGAUAUCUGGAAACAGAGAAGGUGCUACAUUACCGGCAGUGAUGUUGCUGACC
The “apparent KD of K4 kissing-loop reporter” value of the first is 3.2-fold lower: 172 nM for the first, 559 nM for the second.

First: UUAGAGAUCUCAGGAUAUCAGUGAUGUUGUAAUCCAGAUCUGAGAUAGAAUUCUAUCUCAGAUCAAUGAGAAGGGAGAUCUCAUU [AK4.2 Exc FMN B]
Second: CGCCGCAAGGCGGUCCUGCCCACUCCGGAAGGAGCGCCCGCAAGGGCAGGUAGGUCGCCGGAGUGAUGUUCCGGUGGCAGGACCG [#2 Exclusion - Arginine A Attempt #4 (Inspired by Omei)]
The “apparent KD of K4 kissing-loop reporter” value of the first is 1.7-fold higher: 723 nM for the first, 422 nM for the second.

Going from “UCACAAGUUAACUAGUGAUGUUAGUUAGUACGAGGACCGGUACGGCCGCCACUCGAAAAGUGGUUUUACGGACUUUUGGGCAGGC [theeternabot_sameState_KL_Trp_A_17]” to “GUAGACAGACUGCAAGCCUAGUCUACAGACUAGGAUAUCAGGAAACUGAGAAGGAGUCUAGUUGCAGUGAUGUUGCAAGAAUAAU [KL-SSFMN-A24]”, the “apparent KD of K4 kissing-loop reporter” value falls from 268 nM to 123 nM (2.2-fold).

Compared with “UAGCUCUACAGAAGGAGCGACGUUCUUAGACAGUGAUGUUGUCUAUAGUGAAUAUAGGAACGUCAGGUAGGUCGCUGUAGAGCUA [Arg B SS t11]”, “UUAUCACCCUAAGGAUAUAGCUAAGUGAUGUUUAGCUCGUCGCAGGGUAAACACUAGGCCCAAAGGCUAGAAGGUAGCUGGUACC [theeternabot_exclusion_KL_FMN_B_35]” is 2.7-fold lower in “apparent KD of K4 kissing-loop reporter” value: 200 nM for the first, 74 nM for the second.

“CUGGGUUGACGAAAAGUCAACAAAUGAGAAGGAGCGCACGAAAGUGCAGGUAGGUCGCUCAAUCCAGUGAUGUUGGAUCAUCCAG [#SwitchBubble 12 #K4Late]” and “AUGUUUUAUAAACUCAUGGUUUCGACAGAUACCAGCUUCGAGAGGAGCCCUUGGCAGCUGCAUGAGUGAUGUUCAUGUACGAAGA [KL-XTheoA7]” are within 1.5-fold of each other in “apparent KD of K4 kissing-loop reporter” value: 649 nM for the first, 465 nM for the second.

Compared with “UGCGCUGCCUGAGGAUAUAGAAACGAGUGAUGUUCGUGGAUAAGAGCCAGUGAUGUUGGGUUAUUUCUAGAAGGCAGGCAAAGUA [Exclusion FMN B GF7]”, “UGUCAUUGGUCGGCCGCCACUCCAUAACGAGUGAUGUUCUAAAAGACGGAUCGAAAGAUCUGUCGGAGGACCGGGACCGAUGACU [FiskerMod 6 - Jieux - Same State - Tryptophan B]” is 5.3-fold higher in “apparent KD of K4 kissing-loop reporter” value: 117 nM for the first, 622 nM for the second.

First: CCUGCCAGCACGGCCGCCACUUCUAUUGUAUCUAUUUUUGUAAUCCUUUAGGAGUGAUGUUUUUAAAGGACCGGGUGAUGGCUGA [theeternabot_exclusion_KL_Trp_B_14]
Second: AGAAGAGUGAUGUUCUUCUAUAUCUCAGAAGGAGCGACAUUAAUGUCAGGUAGGUCGCUGAGAUGAAAUCUCACACAGAUCUUGG [Arg A SS t8a]
The “apparent KD of K4 kissing-loop reporter” value of the first is 2.7-fold higher: 398 nM for the first, 149 nM for the second.

First: UCGCAUCUCAGAAGGAGCGACAGUGAUUCUGAUAGAAAUCUGAGUGAUGUUCAGAACAGCUGUCAGGUAGGUCGCUGAGAUGCGA [Arg B Ex t8]
Second: AAGGGCGGGACUUCCUCGCCGGAUAGAGAUACCAGCCCUGCAAAGGGCCCUUGGCAGCUCACUGACCUCAGUGAUGUUGAGGUUC [Maanveri]
The “apparent KD of K4 kissing-loop reporter” value of the first is 2.3-fold higher: 547 nM for the first, 234 nM for the second.

Going from “CCCGCGUCGUUAGUGAUGUUGACUUCUGAUACCAGUCGCAGGUAGGACCCUUGGCAGCAGCAGUUUUGUUAUAUGUAGGAUCCAG [theeternabot_exclusion_KL_Theo_A_36]” to “UCCUACGAGGUAACGUGGAUAUCUCGUUGCAAGGAUAUCUGGAAACAGAGAAGGUGCAACAUUAUCAGCAGUGAUGUUGCUGACC”, the “apparent KD of K4 kissing-loop reporter” value falls from 717 nM to 276 nM (2.6-fold).

With “AGUAUGUAAUAUGGCAUAUUUAGAACUGAAGGAGCGCCGAAUAAGGCAGGUAGGUCGCGGAAAUAUGAGUGAUGUUCAUGUUUAA [KL-SSArg-A25]” the “apparent KD of K4 kissing-loop reporter” value was 101 nM.
